# US10919943B2, “Mutant proteins enabling agrochemical control of plant gene expression” (The Regents of the University of California, priority 2016, dated 2021)
# Substitutions are numbered along the chain they refer to. Names and notes keep the numbering of the source. Marks after values point to notes of the source that are not given here.
# B1: T162D: PYR1 mutant T162D, denoted PYR1^! (protein, UniProt O49686 1-191, looked up, variant T162D)
# Abscisic acid receptor PYR1: MPSELTPEERSELKNSIAEFHTYQLDPGSCSSLHAQRIHAPPELVWSIVRRFDKPQTYKHFIKSCSVEQNFEMRVGCTRDVIVISGLPANTSTERLDILDDERRVTGFSIIGGEHRLTNYKSVTTVHRFEKENRIWTVVLESYVVDMPEGNSEDDTRMFADDVVKLNLQKLATVAEAMARNSGDGSGSQVT
# B2: PYR1^!-MANDI: septuple PYR1 mutant (protein, UniProt O49686 1-191, looked up, variant Y58H K59R V81I F108A S122G F159L T162D)
# Abscisic acid receptor PYR1: B1 Abscisic acid receptor PYR1 with Y58H, K59R, V81I, F108A, S122G, F159L
# B3: HAB1^!-3: HAB1^!-2 with the D204A mutation, catalytically inactive (protein)
# chain: MTPAVAMTLSLAANTMCESSPVEITQLKNVTDAADLLSDSENQSFCNGGTECTMEDVSELEEVGEQDLLKTLSDTRSGSSNVFDEDDVLSVVEDNSAVISEGLLVVDAGSELSLSNTAMEIDNGRVLATAIIVGESSIEQVPTAEVLIAGVNQDTNTSEVVIRLPDENSNHLVKGRSVYELDCIPLWGTVSIQGNRSEMEAAFAVSPHFLKLPIKMLMGDHEGMSPSLTHLTGHFFGVYDGHGGHKVADYCRDRLHFALAEEIERIKDELCKRNTGEGRQVQWDKVFTSCFLTVDGEIEGKIGRAVVGSSDKVLEAVASETVGSTAVVALVCSSHIVVSNCGDSRAVLFRGKEAMPLSVDHKPDREDEYARIENAGGKVIQWQGARVFGRLAMSRSIGDRYLKPYVIPEPEVTFMPRSREDECLILASDGLWDVMNNQEVCEIARRRILMWHKKNGAPPLAERGKGIDPACQAAADYLSMLALQKGSKDNISIIVIDLKAQAKFKTRT
# modifications: left off: small tags and cut ends
# Experiments:
# [1] = tested on: HAB1; test: Yeast two hybrid of pBD-PYR1 site saturation mutants with pACT-HAB1 on 10 μM ABA, β-galactosidase staining; type: cell-based, Arabidopsis; design: key: x: Mutations in PYR1 that disrupt ABA-induced binding to PYR1 to HAB1; conditions: S. cerevisiae Y190, 10 μM ABA; dead = lack of visible staining in comparison to wild type control
# Method in brief: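 Binding was read by β-galactosidase staining of chloroform-lysed colonies after 2 days at 30° C on SD (-Leu, -Trp) plates containing 10 μM (+)-ABA. Yeast strain Y190 carried the BD-PYR1 single-substitution mutants plus the AD-HAB1 fusion. Absence of staining versus the wild-type control defined "dead" mutants.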
# [2] = biological target: T1, HAB1^! (Arabidopsis thaliana); test: In vitro PP2C assay, ABA-promoted inhibition of GST-HAB1^! by receptor; type: biochemical; conditions: in response to ABA; 100 nM receptor, 50 nM PP2C; FIG. 2
# T1 construct: 6xHis (N); made in house; host or cells: E. coli BL21 [DE3]pLysS
# Source text: (§1) In the presence of ABA, wild type PYR1 binds to HAB1 and docks into its active site, which inhibits its enzymatic activity by blocking access of substrates. To characterize the orthogonal PYR1^! and HAB1^! interaction biochemically, we produced recombinant forms of each protein in E. coli, along with the wild type form, and tested the wild type and orthogonal mutant for their ability to inhibit HAB1 and HAB1^! activities in vitro. We cloned PYR1^! into pET28 to generate 6×-His tagged receptor and cloned HAB1^! into pGEX-4T-1 to create a GST-fusion protein. The previously constructed (S.-Y. Park et al., 2009) wild type 6×-His-PYR1 and GST-HAB1 constructs were used for producing recombinant wild type proteins. The 6×-His-tagged receptors and GST-tagged PP2Cs were expressed and purified as previously described. Briefly, the proteins were expressed in BL21 [DE3]pLysS E. coli host cells at 18° C. overnight. […] The plates were read using a Victor 2 plate reader (PerkinElmer) (355 nm excitation, 460 nm emission) and assays run in triplicate. The PP2C activity values reported are expressed as percent control values, which were calculated by including the carrier solvent (1% DMSO) and the specific receptor assayed, but no ligand. […]
# [3] = tested on: HAB1; test: In vitro PP2C assay, ligand-promoted inhibition of GST-HAB1 by receptor; type: biochemical, Arabidopsis; conditions: ABA-promoted; FIG. 2
# Source text: as §1, with “overnight. Fusion proteins were purified from sonicated lysates using Ni-NTA agarose (Qiagen, USA) or Pierce™ Glutathione Agarose (Thermo Scientific) according to the manufacturer's instructions. PP2C assays were conducted in 96-well polystyrene flat-bottom microtitre plates (Greiner).” for “overnight.”
# According to our current understanding, in order for ABA signaling to be initiated in vivo, PP2C activity must be inhibited to enable accumulation of active SnRK2 kinases. […] 4-methylumbeliferyl phosphate was added (1 mM final concentration) was added to the reactions after 30 minutes equilibration and plates were read by fluorimetry. The PP2C activity values reported are expressed as percent control values, which was calculated by including the carrier solvent (1% DMSO) and the specific receptor assayed, but no ligand.
# [4] = biological target: T2, HAB1^! (Arabidopsis thaliana, UniProt O49686+Q9CAJ0, F108A/F159L/K59R/S122G/T162D/V393R/V81I/Y58H); test: Yeast two hybrid, mandipropamid-promoted interaction of PYR1 variants with HAB1^!; type: cell-based; conditions: FIG. 3
# T2 construct: expressed in transfected cells
# Source text: (§2) To engineer orthogonal mandipropamid responsiveness, we introduced the PYR1^! mutation into the PYR1^MANDI receptor to create a septuple mutant called PYR1^!-MANDI (PYR1^Y58H;K59R;V81I;F108A;S122G;F159L;T162D). This mutant interacts with HAB1^! and HAB^!-2 in response to low μM mandipropamid in yeast two-hybrid assays, but is ˜100-fold less sensitive than the PYR1^MANDI/HAB1 interaction, which responds to concentrations in the low nM range (FIG. 3).
# [5] = tested on: HAB1^!-2; test: Yeast two hybrid, mandipropamid-promoted interaction of PYR1 variants with HAB1^!-2; type: cell-based; conditions: FIG. 3, FIG. 4
# Source text: as §2
# To improve sensitivity, we mutagenized ligand contacting and interface residues in PYR1^!-MANDI using NNK primers, pooled the mutant libraries, and used the mutagenized receptors in selection experiments using to identify enhancer mutations. The NNK mutagenesis screen targeted the following residues: P55, H60, F61, I62, K63, V83, S85, G86, L87, P88, A89, S92, E94, I110, H115, R116, L117, Y120, E141, P148, G150, N151, D154, D155, T156, M158, A160, V163, V164, L166, N167, and K170. […] Since M158 and A160 flank the […] mutation present in PYR1^MANDI, we inferred that the closely located orthogonalizing T162D mutation in PYR1^!-MANDI may have reduced mandipropamid sensitivity by altering the local structure of the C-terminal α3-helix, which participates in ligand-induced conformational changes needed for PP2C binding (Nishimura et al., 2009). We therefore simultaneously mutagenized positions M158, F159 and A160 using a primer with degenerate NNK codons at all three positions. F159 was included in this mutagenesis because we have previously observed that multiple substitutions at F159 (A,C,I,L,M,T, or V) are permissive for mandipropamid responsiveness (S. Y. Park et al., n.d.), and sought to test whether residues other than leucine at position 159 might function better in the context of simultaneous changes to both A160 and M158. The mutagenic primer was used in QuickChange mutagenesis reactions using pBD-PYR1^!-MANDI template, and a library of ˜12,000 clones was generated. Plasmid DNA for the library was prepared from pooled E. coli transformants, and subsequently transformed into S. cerevisiae strain MAV99 harboring pACT-HAB1^!-2. ˜20,000 yeast transformants were generated, pooled, and plated onto SD(-Leu,-Trp) agar media supplemented with 0.1% fluorotic acid (to select against mutants that interact in a ligand-independent fashion). The surviving cells were collected and plated onto SD(Leu,-Trp,-Ura) plates supplemented with 50 nM mandipropamid. The colonies displaying the best uracil-independent growth were isolated and retested on different mandipropamid concentrations and then stained in β-galactosidase assays to rank their relative strength.
# [6] = Phosphatase activity of recombinant GST-HAB1 proteins (4-methylumbeliferyl phosphate); type: biochemical; conditions: 1 μg protein, percent control (GST-HAB1); FIG. 7
# Source text: as §1, with “described.” for “described. Briefly, the proteins were expressed in BL21 [DE3]pLysS E. coli host cells at 18° C. overnight.”
# To characterize HAB1^!-3 and HAB1* in vitro, we cloned them into pGEX-4T-1 to create GST-fusion proteins. […] The PP2C activity values reported are expressed as percent control (GST-HAB1) from triplicate measurements.
# [7] = biological target: T3, PYR1*^-MANDI (Arabidopsis thaliana, UniProt O49686, A160V/F108A/F159V/K59R/M158I/S122G/T162D/V81I/Y58H); test: Yeast two hybrid, mandipropamid-induced interaction of HAB1 variants with pBD-PYR1*^-MANDI; type: cell-based; conditions: FIG. 5
# T3 construct: expressed in transfected cells; host or cells: S. cerevisiae strain MAV99 (selection)
# T3 sequence (O49686 1-191 Y58H/K59R/V81I/F108A/S122G/M158I/F159V/A160V/T162D): B1 Abscisic acid receptor PYR1 with Y58H, K59R, V81I, F108A, S122G, M158I, F159V, A160V
# Source text: To investigate the effects of overexpressing HAB1^!-2 in Arabidopsis, we used Agrobacterium mediated transformation to generate 35S::GFP-HAB1^!-2 transgenic plants. HAB1^!-2 was cloned from pACT-HAB1^!-2 into pEGAD, a binary vector suitable for plant transformation, generating a 35S-driven GFP-HAB1^!-2 fusion protein. The clone was transformed into Agrobacterium and the floral dip method used to transform Arabidopsis. After selection of T0 seed on soil containing glufosinate, several T1 seedlings were identified. […] As an alternate strategy, we eliminated HAB1's catalytic activity by introducing a mutation in a conserved metal-ion binding residue (D204), which is homologous to D131A mutation in ABI1, previously shown to eliminate phosphatase activity without disrupting wild type receptor-ABI1 interactions (Liang et al., 2011). We used QuickChange mutagenesis to introduce the D204A mutation into pACT-HAB1^!-2, generating pACT-HAB1^!-3. When tested for mandipropamid induced interactions with pBD-PYR1*^-MANDI, HAB1^!-3 is ˜10-fold less sensitive to mandipropamid relative to HAB1^!-2 (FIG. 5).
# D204 is located within HAB1's catalytic active site and binds to one of 3 catalytic Mg^++ ions that participate in catalysis. […] It is likely that disruptions to active site structure introduced by D204A destabilize the PYR1*^-MANDI/HAB1^!-3 interaction relative to HAB1^!-2. We reasoned that suppressor mutations in other HAB1 interface or active site residues could restore sensitivity by strengthening interactions with PYR1*^-MANDI. To identify such suppressors, we mutagenized the pACT-HAB1^!-3 template using NNK mutagenesis in 28 residues located with at the PYR1 binding interface. The residues targeted were: R199, S200, E201, E203, D243, G244, H245, G246, G247, S322, E323, T324, D346, K365, K381, 1383, Q384, W385, Q386, R389, F391, G392, Y404, S431, G433, D436, D492 and N394. The pACT-HAB1^!-3 template was mutagenized in 28 separate NNK mutagenesis reactions using the QuickChange protocol. Mini-libraries, each containing ˜1000 clones, were made for each NNK reaction and plasmid DNA for the 28 mutations prepared, pooled, and then transformed into S. cerevisiae strain MAV99 co-transformed with pBD-PYR1*^-MANDI, and then plated onto selective SD(-Leu,-Trp,-Ura) agar media supplemented with 500 nM mandipropamid. […] S322D and R199A were combined using the Lightning Multi-site Mutagenesis™ (Agilent, USA) method, and the resultant pentuple mutant tested in combination with pBD-PYR1*^-MANDI for sensitivity to mandipropamid using β-galactosidase assays.
# T2 sequence (O49686 whole entry Y58H/K59R/V81I/F108A/S122G/F159L/T162D): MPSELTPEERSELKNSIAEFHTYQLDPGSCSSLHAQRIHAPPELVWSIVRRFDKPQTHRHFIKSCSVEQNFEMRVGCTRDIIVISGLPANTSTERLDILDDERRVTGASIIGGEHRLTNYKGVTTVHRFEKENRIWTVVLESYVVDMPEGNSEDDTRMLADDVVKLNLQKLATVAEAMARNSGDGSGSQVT
# T2 sequence (Q9CAJ0 4-511 V393R): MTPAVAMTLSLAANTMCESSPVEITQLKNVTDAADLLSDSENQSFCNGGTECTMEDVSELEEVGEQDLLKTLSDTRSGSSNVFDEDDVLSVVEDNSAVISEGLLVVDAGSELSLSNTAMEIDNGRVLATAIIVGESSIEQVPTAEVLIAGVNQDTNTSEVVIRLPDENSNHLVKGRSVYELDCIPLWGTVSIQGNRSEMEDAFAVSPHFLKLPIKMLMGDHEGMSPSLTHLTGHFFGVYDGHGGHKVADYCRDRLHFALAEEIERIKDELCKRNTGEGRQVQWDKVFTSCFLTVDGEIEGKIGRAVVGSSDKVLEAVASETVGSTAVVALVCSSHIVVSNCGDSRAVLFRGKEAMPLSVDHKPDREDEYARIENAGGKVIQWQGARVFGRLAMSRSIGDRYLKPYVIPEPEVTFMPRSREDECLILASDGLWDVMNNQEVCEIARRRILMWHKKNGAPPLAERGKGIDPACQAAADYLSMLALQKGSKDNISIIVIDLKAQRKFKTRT
molecule,measurement,setting,value
B1,Mutations in PYR1 that disrupt ABA-induced binding to PYR1 to HAB1,[1],x
same,inhibition of HAB1^! phosphatase activity,[2],does not strongly inhibit
same,inhibition of HAB1 phosphatase activity,[3],unable to inhibit
B2,mandipropamid concentration to which the interaction responds,[4],low μM
same,mandipropamid concentration to which the interaction responds,[5],low μM
B3,catalytic activity in vitro,[6],Neither HAB1^!-3 or HAB1* display detectable catalytic activity
same,fold less sensitive to mandipropamid relative to HAB1^!-2,[7],~10 fold
